In patent US20160130575:

Target: alpha-thrombin (Homo sapiens) (UniProt P00734+P00734)
Experiment: flow
Conditions: bead-based fluorescence; measured here; sequence not given

| Substance | Kd |
| --- | --- |
| Bock thrombin aptamer | 2.1 nM |
| Tasset thrombin aptamer | 10.4 nM |
